The values that follow are results of earlier work, collected in paper PMC2773841.

The series concerns the target DnaK (Escherichia coli) (UniProt P0A6Y8).

Sequence of GrpE (P09372 whole entry): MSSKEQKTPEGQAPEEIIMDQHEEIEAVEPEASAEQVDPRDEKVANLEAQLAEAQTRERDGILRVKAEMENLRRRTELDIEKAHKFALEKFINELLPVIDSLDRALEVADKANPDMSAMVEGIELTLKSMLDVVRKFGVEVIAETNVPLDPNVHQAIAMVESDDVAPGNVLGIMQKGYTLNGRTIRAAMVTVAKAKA
Sequence of DnaK (Escherichia coli) (P0A6Y8 2-638): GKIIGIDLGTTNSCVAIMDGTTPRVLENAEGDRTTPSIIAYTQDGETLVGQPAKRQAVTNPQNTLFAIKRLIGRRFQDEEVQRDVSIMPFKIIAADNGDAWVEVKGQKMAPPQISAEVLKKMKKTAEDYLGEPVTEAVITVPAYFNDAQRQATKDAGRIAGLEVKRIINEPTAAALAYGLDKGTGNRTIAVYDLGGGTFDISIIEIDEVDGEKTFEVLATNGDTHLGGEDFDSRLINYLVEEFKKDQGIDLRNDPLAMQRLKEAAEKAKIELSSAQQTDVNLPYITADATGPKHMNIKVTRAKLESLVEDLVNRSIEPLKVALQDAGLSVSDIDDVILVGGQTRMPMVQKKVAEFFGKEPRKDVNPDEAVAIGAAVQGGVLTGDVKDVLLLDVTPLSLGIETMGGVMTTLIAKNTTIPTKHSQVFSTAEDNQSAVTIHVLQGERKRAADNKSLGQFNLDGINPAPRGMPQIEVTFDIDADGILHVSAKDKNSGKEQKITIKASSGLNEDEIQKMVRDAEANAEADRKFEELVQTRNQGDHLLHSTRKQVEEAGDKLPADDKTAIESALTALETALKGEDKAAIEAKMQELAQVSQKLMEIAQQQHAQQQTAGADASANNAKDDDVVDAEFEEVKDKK

For the substance GrpE (from UniProt P09372), the Kd is 1 nM.

What is called Kd is the concentration at which binding is half-saturated.
